{"source": "patent US20020115613A1", "about": "“Treatment of prostate cancer” (priority 2001, published 2002)", "molecules": {"B1": {"name": "Tumor necrosis factor α—Related Apoptosis Inducing Ligand (protein, UniProt P50591 1-281, looked up)", "Tumor necrosis factor ligand …": "MAMMEVQGGPSLGQTCVLIVIFTVLLQSLCVAVTYVYFTNELKQMQDKYSKSGIACFLKEDDSYWDPNDEESMNSPCWQVKWQLRQLVRKMILRTSEETISTVQEKQQNISPLVRERGPQRVAAHITGTRGRSNTLSSPNSKNEKALGRKINSWESSRSGHSFLSNLHLRNGELVIHEKGFYYIYSQTYFRFQEEIKENTKNDKQMVQYIYKYTSYPDPILLMKSARNSCWSKDAEYGLYSIYQGGIFELKENDRIFVSVTNEHLIDMDHEASFFGAFLVG", "notes": "281 amino acid type II transmembrane protein of the tumor necrosis factor α family; purchased from Biomol"}}, "format_in_all_cases": "cell-based", "key": {"PC3Neo cells [1]": {"tested_on": "PC3Neo cells", "test": "Induction of apoptosis / cell survival (FIG. 1E, 6A)", "experimental": "(§1) Prostate cancer cell lines, PC3Neo and PC3AR were provided by Dr. K. Burnstein, University of Miami School of Medicine, Miami, Fla. PC3AR cells are a clonal cell line derived by stable transfection of PC3 with a full-length human AR cDNA (Dai, J. L., et al., Steroids, 61, 531-539, 1996). PC3Neo cells were stably transfected with neomycin vector alone. Cells were grown in RPMI 1640 with 5% FBS (Hyclone, Logan, Utah), 100 units/ml penicillin, 100 μg/ml streptomycin, 0.25 μg/ml fungizone and G418 (350 μg/ml) to select for neomycin-resistant cells. In experiments using antiandrogens, cells were maintained in 5% DCC stripped serum for at least 48 hr before treatment with hydroxyflutamide (Sigma Chemical Co., St. Louis, Mo.). The medium and all the drugs were replaced every two days. Cells were treated with 200 ng/ml, 400 ng/ml or 600 ng/ml of TRAIL (Biomol Research Laboratories, Inc, Plymouth Meeting, Pa.) for 2, 4, 6, 8, 16 and 20 hr. Cells were treated with 5 μM hydroxyflutamide for 5 days before the commencement of treatment with 400 ng/ml TRAIL.\nTwo methods were used to measure induction of apoptosis by drug treatment: the MTT assay and the Apoptosense assay. The MTT assay measures mitochondrial enzyme activity and is indicative of the number of surviving cells. The Apoptosense assay is an ELISA, which utilizes M30 antibody to recognize the C-terminal domain (amino acids 387-396) of cytokeratin 18 that is exposed in apoptotic cells after cleavage by caspases.\nCells were seeded in 96-well plates (6000 cells/well) and treatment was started 24 hr after seeding the cells. After completion of the treatment, cells were incubated at 37° C. with the MTT reagent for 3 hr and processed according to manufacturers instructions (Promega Corporation, Madison, Wis.). Color development was measured at 490 nm on a Spectra MAX 340 microplate reader (Molecular Devices, Menlo Park, Calif.).\nTo examine the role of NFκB in altered response to TRAIL, its function was blocked by over expressing mutated IκB protein (Kanegae, Y., et al., Nature 392, 611-614, 1998). […]"}, "PC3AR cells": {"tested_on": "PC3AR cells", "test": "Western blotting of death receptors, caspases, Bid, NFκB, XIAP", "experimental": "as §1\n(§2) Cells were harvested by trypsinization, washed in 1×PBS and cell pellets resuspended in lysis buffer (100 mM Tris-HCl pH 8.0, 0.1% Triton X 100 and protease inhibitor cocktail from Roche Diagnostic Corporation, Indianapolis, Ind.). Cells were incubated over ice for 30 min and centrifuged at 10,000 g at 4° C. for 10 min. The supernatant was collected and the protein concentration estimated using Bio-Rad protein reagent (Bio-Rad Laboratories, Hercules, Calif.).\n(§3) Proteins (50 μg, unless stated otherwise) were separated on NuPAGE 10% Bis-Tris gels (Novex pre-cast mini gels, InVitrogen, Carlsbad, Calif.) at 100 volts for 1 hour in the presence of 1×MES-SDS running buffer (InVitrogen, Carlsbad, Calif.). Separated proteins were transferred to (PVDF) membranes (Bio-Rad Laboratories, Hercules, Calif.) at 42 volts for 2.5 hr using a Novex XCell II blotting apparatus in MES transfer buffer in the presence of NuPAGE antioxidant. Transfer of the proteins to the polyvinylidene difluoride (PVDF) membrane was confirmed by staining with Ponceau S (Sigma, St. Louis, Mo.). The blots were blocked in 5% non-fat dry milk in TBS, washed twice for 10 min each with TBS containing 0.1% Tween-20 and incubated for 2 hr at RT with primary antibody diluted in TBS containing 0.5% milk.\n(§4) The following antibodies were used in the immunoblots: DR4, DR5 and cytochrome c (Imgenex, San Diego, Calif.), BID (BioSource International, Camarillo, Calif.), caspases-8, -9, and Akt (Cell Signaling Technology, Beverely, Mass.), caspase-3 (BD Pharmingen, San Diego, Calif.) Iκβ and XIAP (Cell Signaling Technology, Beverly, Mass.), cFLIP (StressGen Biotechnology Corp, Victoria, Canada), actin (Sigma Chemical Co., St. Louis, Mo.) and Cox II (Molecular Probes, Eugene, Oreg.). Immunoreactive bands were visualized using ECL detection system (Amersham, Pharmacia Biotech, Arlington Heights, Ill.) and signals were developed after exposure to X-ray film (X-Omat films, Eastman Kodak Company, Rochester, N.Y.).\n(§5) For separation of mitochondrial and cytosolic fractions, cells were trypsinized, centrifuged at 600 g for 10 min at 4° C., washed twice in ice-cold PBS and re-suspended in buffer A (20 mM HEPES-KOH, pH 7.2, 10 mM KCl, 1.5 mM MgC12, 1 mM sodium-EDTA, 1 mM sodium-EGTA, 250 mM sucrose and protease inhibitor cocktail). Cells were homogenized on ice with a glass Dounce homogenizer (30 strokes) and were centrifuged at 750 g for 5 min at 4° C. The supernatant was centrifuged for 15 min at 10,000 g at 4° C. to pellet mitochondria, which was washed and resuspended in lysis buffer. The supernatant was centrifuged at 100,000 g for 60 min at 4° C. and S-100 cytosol was collected. […]"}, "PC3Neo cells [2]": {"tested_on": "PC3Neo cells", "test": "Western blotting of death receptors, caspases, Bid, NFκB, XIAP", "experimental": "as §1, §2, §3, §4, §5"}, "LNCaP C4-2 cells": {"tested_on": "LNCaP C4-2 cells", "test": "Western blotting of death receptors, caspases, Bid, cytochrome c, Akt", "settings": "15 min, FIG. 8"}, "[3]": {"settings": "400 ng/ml TRAIL, by 2 hr, FIG. 2C"}}}
{"molecule": "B1", "values": [{"measurement": "apoptotic response at 200 ng/ml", "setting": "PC3Neo cells [1]; 200 ng/ml TRAIL", "value": "lower response"}, {"measurement": "death of cells (apoptosis)", "setting": "PC3Neo cells [1]; 400 ng/ml TRAIL, by 20 hr, FIG. 1E", "value": "~18", "unit": "%"}, {"measurement": "apoptosis at higher dose", "setting": "PC3Neo cells [1]; 600 ng/ml TRAIL", "value": "did not significantly increase apoptosis"}, {"measurement": "increase in expression of DR5", "setting": "PC3AR cells; [3]", "value": "~5", "unit": "fold"}, {"measurement": "increase in expression of DR5 (peak)", "setting": "PC3AR cells; 400 ng/ml TRAIL, by 16 hr, FIG. 2C", "value": "~8", "unit": "fold"}, {"measurement": "DcR2 expression", "setting": "PC3AR cells; TRAIL treatment", "value": "did not significantly alter DcR2 expression"}, {"measurement": "DR4 levels", "setting": "PC3AR cells; TRAIL-treated", "value": "increased"}, {"measurement": "cleaved caspase-9", "setting": "PC3AR cells; by 4 hr, lasted until 16 hr", "value": "significant levels of cleaved caspase-9 were detected"}, {"measurement": "tBid in mitochondria", "setting": "PC3AR cells; mitochondrial fraction, not shown", "value": "translocated into mitochondria within 2 hours"}, {"measurement": "XIAP levels", "setting": "PC3AR cells; not shown", "value": "did not alter XIAP levels significantly"}, {"measurement": "cleaved caspase-3 (p17)", "setting": "PC3AR cells; not shown", "value": "present in both cell lines as early as 2 hr"}, {"measurement": "expression of NFκB", "setting": "PC3AR cells; not shown", "value": "increased the expression of NFκB levels"}, {"measurement": "mature p12 caspase-3 product", "setting": "PC3AR cells; not shown", "value": "noted only in PC3AR"}, {"measurement": "tBid expression", "setting": "PC3AR cells; not shown", "value": "detected up to 8 hr of treatment"}, {"measurement": "cleavage of procaspase-8", "setting": "PC3AR cells; within 2 hr, not shown", "value": "induced cleavage of procaspase-8"}, {"measurement": "activated caspase-9", "setting": "PC3Neo cells [2]", "value": "not detected"}, {"measurement": "increase in expression of DR5", "setting": "PC3Neo cells [2]; [3]", "value": "~2", "unit": "fold"}, {"measurement": "DcR2 expression", "setting": "PC3Neo cells [2]; TRAIL treatment", "value": "did not significantly alter DcR2 expression"}, {"measurement": "DR4 levels", "setting": "PC3Neo cells [2]; TRAIL-treated", "value": "did not show significant changes"}, {"measurement": "tBid expression", "setting": "PC3Neo cells [2]; by 4 hr of TRAIL treatment, not shown", "value": "little tBid was present"}, {"measurement": "tBid in mitochondria", "setting": "PC3Neo cells [2]; mitochondrial fraction, highest level by 2 hr, not shown", "value": "significantly lower than that seen in PC3AR cells"}, {"measurement": "XIAP levels", "setting": "PC3Neo cells [2]; not shown", "value": "did not alter XIAP levels significantly"}, {"measurement": "cleaved caspase-3 (p17)", "setting": "PC3Neo cells [2]; not shown", "value": "present in both cell lines as early as 2 hr"}, {"measurement": "expression of NFκB", "setting": "PC3Neo cells [2]; not shown", "value": "increased the expression of NFκB levels"}, {"measurement": "mature p12 caspase-3 product", "setting": "PC3Neo cells [2]; not shown", "value": "noted only in PC3AR"}, {"measurement": "cleavage of procaspase-8", "setting": "PC3Neo cells [2]; within 2 hr, not shown", "value": "induced cleavage of procaspase-8"}, {"measurement": "phosphorylated Akt", "setting": "LNCaP C4-2 cells", "value": "slightly decreased phosphorylated Akt"}]}
